In PMC8210614, “IRDye800CW labeled uPAR-targeting peptide for fluorescence-guided glioblastoma surgery: Preclinical studies in orthotopic xenografts” (Theranostics, 2021):
Non-standard residues stand in square brackets, D forms with d. Primed or numbered codes have the meaning given here. Cha = N[C@@H](CC1CCCCC1)C(=O)O; IRDye800CW′ = not defined here; AEEA = NCCOCCOCC(=O)O

What was measured:
[1] = not given; remark: listed apart in the source
[2] = not given; remark: listed apart in the source
[3] = not given; remark: listed apart in the source
orthotopic PDX GBM = format: in vivo, nude mice; details: IRDye800CW-AE344 6 nmol i.v. 3 h before surgery; 5-ALA 0.25 mg/g oral 4-5 h before; NIR surgery followed 5-ALA surgery; 2 animals each
glioma = details: cited from earlier work
Description: Gliolan®, the brand name of 5-ALA, was approved for clinical use for GBM resection in Europe in 2007 and by the FDA in 2017. After oral administration, it is metabolized inside the tumor cells into protoporphyrin IX that is fluorescent with an emission peak at 635 nm. […] Further, the frequency of the most common early severe adverse events (hemiparesis, aphasia, convulsions, and epidural hematoma) was 11 of 139 pati ... || GBM as a high-grade glioma is characterized by alterations of the normal brain vasculature resulting in a disrupted leaky BBB [47] manifested on MRI with tumor contrast-enhancement. However, the highly invasive nature of GBM causes single cell invasion into otherwise healthy tissue and proliferation of cells in areas outside of the disrupted BBB region, usually in areas not showing contrast-enhancement on MRI [48]. In contrast, the vasculature and BBB function in low-grade gliomas remains virtually unaltered and intact with normal function. As a consequence, the BBB in both high-grade and ...

[4] = Ex vivo plasma stability, human plasma; format: in vitro ADME; details: 37 °C in dark, 2.4 nmol in 1,600 ul plasma, acetonitrile precipitation, HPLC fluorescence detection ex 774/em 798 nm, normalized to 0 h, read-out: intact probe (normalized AUC on HPLC)
Procedure: (§1) For plasma stability 1,600 ul human and murine plasma were separately incubated with 2.4 nmol IRDye800CW-AE344 in 10 ul PBS at 37 °C in dark. 200 ul samples were collected at 0, 0.5, 1, 2, 3, 6, 12 and 24 h. Plasma proteins were precipitated by addition of 200 ul acetonitrile and the samples were centrifuged at 10,000 G for 10 min. The supernatant was collected for analysis. The supernatant from time zero from both the human and mouse serum was analyzed to establish the retention time of the intact IRDye800CW-AE344 on HPLC-MS on a RSLC Dionex Ultimate 3000 (Thermo) instrument coupled to a Bruker QTOF Impact HD II. The column was an Aeris widepore 3.6 µm C4 column (150 × 4.6 mm, Phenomenex) and the solvent system was solvent A: water containing 0.1% Formic acid; solvent B: acetonitrile containing 0.1% formic acid. Method: 0-1 min 5% solvent B, 1-18min 5%-50% solvent B with a flowrate of 1 mL/min. […] All samples were then run using the settings above and the AUC at the 14 min peak was used to calculate the degradation with 0 h for both murine and human plasma as the reference.

[5] = Ex vivo plasma stability, murine plasma; format: in vitro ADME; details: mouse, 37 °C in dark, 2.4 nmol in 1,600 ul plasma, acetonitrile precipitation, HPLC fluorescence detection ex 774/em 798 nm, normalized to 0 h, read-out: intact probe (normalized AUC on HPLC)
Procedure: as §1

[6] = tested on: 3D blood-brain barrier (BBB) spheroids; assay: Uptake into 3D blood-brain barrier spheroids; format: in vitro ADME, human; details: 25 µM, overnight incubation 37 °C/5% CO2, confocal, slice 97 µm inside spheroid, three independent experiments; p = 0.0229
Procedure: All cell lines were incubated at 37 °C/5% CO2.
Blood-brain-barrier spheroid assembly and uptake assays: Blood-brain barrier (BBB) spheroids were assembled as previously described [54]. Briefly, 50 µL of 1% agarose (w/v) in Milli-Q water is added to each well of low-binding 96 well plates (Thermo Fisher Scientific) and allowed to cool prior to the addition of cells. Confluent astrocytes, pericytes and hCMEC/D3 were lifted with 0.025% trypsin and resuspended in BBB-working media (Vasculife-Mv with VEGF omitted and 2% normal human serum). 1x10^3 of each cell type is added sequentially to give a total volume of 100 µL per well. BBB-working media was added to each well to a final volume of 200 µL per well. Astrocytes were used between passage 2 and 4, pericytes between passage 4 and 6, and hCMEC/D3 between passages 29 and 30. […]
The following day, spheroids (10 per treatment condition) were pooled by group into low-binding Eppendorf tubes (1.5 mL, Thermo Fisher Scientific) using 0.1% Triton X-100 treated pipette tips and washed 3 times with sterile PBS. […] The extent of uptake into the spheroids was determined by capturing Z-stacks of each spheroid and measuring the integrated density of a region of interest 50µm from the outer boundary of the spheroid using a slice that corresponds to 97µm inside the spheroid [54]. […]

liver and kidneys = assay: Acute toxicity, liver and kidney histology; format: in vivo, nude mice; details: 24 h post injection of 12 nmol, 5 animals
Procedure: Acute toxicity was evaluated on the liver and kidneys from 5 animals 24 h post injection of 12 nmol IRDye800CW-AE344.
Liver and kidney tissue was formalin fixed and paraffin embedded. Sections of 2-4 um thick were cut and a routine staining panel applied including: H&E, modified sirius, PAS and Masson trichome for both and additional PAS with silver for kidneys and PAS with diastase, iron, reticulin artisan and oxidized orcein for the livers. Livers were immunohistochemically stained, immunohistochemical evaluation on 3 µm thick sections was done using the CK7 antibody from Dako/Agilent, GA619 (clone OV-TL12/30) following the manufacturer's instructions. The staining took place on the Omnis from Agilent utilizing the EnVision Flex+ detection kit (GV800). The primary antibody was diluted using Antibody Diluent (Dako DM830) and were incubated for 20 min. The sections were counterstained with hematoxylin.

[7] = Biodistribution by organ fluorescence imaging; format: in vivo, nude mice; details: 3 nmol, 1 h post injection
Procedure: Biodistribution was assessed in animals (n=2) receiving 3 nmol IRDye800CW-AE344 and was euthanized after 1 h for organ dissection and imaging (exposure time: 333 ms). Due to renal excretion, the fluorescence signals in the kidneys were out of scale compared to all the other organs.

uPAR-expressing tumors = details: cited from earlier work; for time of maximal TBR: previous probes
Procedure: Compared to our previous probes, ICG-2Glu-AE105 and CH1055-4Glu-AE105, we improved several features. Importantly, the route of excretion changed from liver to kidneys leading to improved pharmacokinetics with faster excretion. Maximal TBR decreased from 15 h and 96 h of ICG-Glu-Glu-AE105 and CH1055-4Glu-AE105, respectively to 3 h with the current new probe.

[8] = target: T1, urokinase-type Plasminogen Activator Receptor (uPAR) (UniProt Q03405 23-305); assay: SPR; competition in solution, Biacore 3000: pro-uPA S356A immobilised on a CM5 chip (>5000 RU, mass transport limited); 2 nM uPAR incubated with a 3-fold dilution series of peptide (0.076 nM to 1.5 uM), 300 sec, 20 °C, 50 uL/min; 10 mM HEPES, 150 mM NaCl, 3 mM EDTA, 0.05% P20, pH 7.4; details: both partners purified
T1 sequence (Q03405 23-305): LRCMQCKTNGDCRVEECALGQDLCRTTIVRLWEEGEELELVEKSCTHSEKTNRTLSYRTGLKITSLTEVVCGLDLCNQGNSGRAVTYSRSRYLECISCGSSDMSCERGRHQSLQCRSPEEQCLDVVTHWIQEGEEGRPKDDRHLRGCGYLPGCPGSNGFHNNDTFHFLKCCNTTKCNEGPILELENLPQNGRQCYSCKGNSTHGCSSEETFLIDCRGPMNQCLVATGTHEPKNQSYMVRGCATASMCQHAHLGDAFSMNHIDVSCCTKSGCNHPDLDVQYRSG

[9] = target: T1, urokinase-type Plasminogen Activator …; assay: cell-based or functional assay

Molecule: CC(C)C[C@H](NC(=O)[C@H](Cc1ccc(O)cc1)NC(=O)[C@@H](CCCNC(=N)N)NC(=O)[C@@H](CO)NC(=O)[C@H](Cc1ccccc1)NC(=O)[C@H](CC1CCCCC1)NC(=O)[C@H](CC(=O)O)NC(=O)COCCOCCNC(=O)COCCOCCNC(=O)[C@H](CCC(=O)O)NC(=O)[C@H](CCC(=O)O)NC(=O)CCCCC[N+]1=C(/C=C/C2=C(Oc3ccc(S(=O)(=O)O)cc3)C(=C/C=C3/N(CCCCS(=O)(=O)[O-])c4ccc(S(=O)(=O)O)cc4C3(C)C)/CCC2)C(C)(C)c2cc(S(=O)(=O)O)ccc21)C(=O)N[C@@H](Cc1c[nH]c2ccccc12)C(=O)N[C@@H](CO)C(=O)O
- excitation peak λexcit,max: 784 nm
- absorption maximum λabs,max [1]: 777 nm
- emission peak λemis,max [2]: 794 nm
- Stokes shift [3]: 10 nm

Molecule: NCC(=O)CCC(=O)O [5-ALA]
- postoperative residual tumor on histology after guided surgery (orthotopic PDX GBM): clearly showed residual tumor
- low-grade gliomas showing visible fluorescence (glioma): approximately 20%
- frequency of the most common early severe adverse events (glioma; hemiparesis, aphasia, convulsions, epidural hematoma, WL group 4 of 131): 11 of 139
- rate of complete resection of the tumor (glioma; phase III clinical trial, 5-ALA vs WL surgery (36% with WL)): 65%

Molecule: CC(C)C[C@H](NC(=O)[C@H](Cc1ccc(O)cc1)NC(=O)[C@@H](CCCNC(=N)N)NC(=O)[C@@H](CO)NC(=O)[C@H](Cc1ccccc1)NC(=O)[C@H](CC1CCCCC1)NC(=O)[C@H](CC(=O)O)NC(=O)COCCOCCNC(=O)COCCOCCNC(=O)[C@H](CCC(=O)O)NC(=O)[C@H](CCC(=O)O)NC(=O)CCCCC[N+]1=C(/C=C/C2=C(Oc3ccc(S(=O)(=O)O)cc3)C(=C/C=C3/N(CCCCS(=O)(=O)O)c4ccc(S(=O)(=O)O)cc4C3(C)C)/CCC2)C(C)(C)c2cc(S(=O)(=O)[O-])ccc21)C(=O)N[C@@H](Cc1c[nH]c2ccccc12)C(=O)N[C@@H](CO)C(=O)O [IRDye800CW-AE344]
- remaining at 6 h [4]: 61%
- remaining at 6 h, 1.5 µM ([5]; 6 h): 73%
- remaining at 12 h, 1.5 µM ([5]; 12 h): 67%
- fold change in relative fluorescence units (RFU) compared to untreated spheroids [6]: 5.3 fold
- kidney histology (liver and kidneys): normal with preserved glomeruli and tubules without atrophy, inflammation, or fibrosis
- liver histology (liver and kidneys): normal with lobular configuration without inflammation, fibrosis, cholestasis or deposits
- MFI in liver ([7]; n=2, exposure time 333 ms): 88 a.u.
- MFI in lungs ([7]; n=2, exposure time 333 ms): 101 a.u.
- MFI in normal brain tissue ([7]; n=2, exposure time 333 ms): 19 a.u.
- MFI in skin ([7]; n=2, exposure time 333 ms): 99 a.u.
- MFI in kidneys ([7]; n=2, acquired at 40 ms and extrapolated to 333 ms): 1,236 a.u.

Molecule: CH1055-Glu-Glu-Glu-Glu-AE105 [CH1055-4Glu-AE105, previous uPAR probe with NIR-II fluorophore CH1055]
- TBR of previous probes (uPAR-expressing tumors): 2.7
- time of maximal TBR (uPAR-expressing tumors): 96 h

Molecule: ICG-Glu-Glu-AE105 [previous fluorescently labeled uPAR probe with ICG]
- TBR of previous probes (uPAR-expressing tumors): 3.5
- time of maximal TBR (uPAR-expressing tumors): 15 h

B1: AE105 (peptide)
chain: DAFSRYLWS
modifications: 9-mer; residue 2 Cha (cyclohexylalanine), residue 4 D-Ser, residue 5 D-Arg; C-terminal free acid. Sequence not printed: taken from the core of the related antagonist peptide AE147 in 1YWH, with D-Arg
- IC50 [8]: 7.8 nM

Molecule: {IRDye800CW′}-EE[AEEA][AEEA]D[Cha]F[dS][dR]YLWS-OH (also: X3-X4: OEG2 linker between Glu-Glu and AE105) [IRDye800CW-AE344]
- normalized tumor-to-background ratio (TBR), NIR imaging of cross sectioned brains with orthotopic GBM in mice, 3 nmol IRDye800CW-AE344 (active), 1 h [9]: 6.6
- normalized tumor-to-background ratio (TBR), NIR imaging of orthotopic GBM in mice, 3 nmol IRDye800CW-AE344 blocked by co-administered AE120 (the dimer version of the AE105), 1 h [9]: 4.6
- IC50 [8]: 20 nM
